Target: SARS-CoV-2 receptor-binding domain (RBD), prototype (Wuhan-Hu-1), Avi-tagged and biotinylated (SARS-CoV-2)
Test: BLI

B1: Ab08 single-chain fragment variable (scFv) (scFv, V domains shown)
VH: QVQLVQSGAEVKKPGSSVKVSCKASGGTFSSYTISWVRQAPGQGLEWMGGIIPILGTTNYAQKFQGRVTITADESTSTAYMELSSLRSEDTAVYYCARKFGYSGYGATWYFDLWGRGTLVTVSS
VL: QSVLTQPPSVSGAPGQRVTISCTGNSSNIGAGYDVHWYQQFPGTAPKLLIYGNSNRPSGVPDRFSGSKSGTSASLAITGLQAEDEADYYCQSYDSSLSGSVFGGGTKLTVL
- koff: 7.5e-05 s⁻¹

— PMC9907810 (2023)
